Experiment: yeast display, Sf9 membrane polyspecificity reagent, FACS + sequencing; frameworks hold sequencing errors
How it was run: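 Genes from sorted yeast were amplified by colony PCR, read by MiSeq 2 × 250 sequencing and filtered on CDR length. These cells carried a synthetic nanobody library in Saccharomyces cerevisiae BJ5465 and were sorted by FACS into low and high (top ~1%) gates on anti-HA and streptavidin fluorescence. Polyreactivity is labelled according to the gate of origin.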

| Sequence | polyreactivity (PSR sort gate) |
| --- | --- |
| QVQLVESGGGLVQAGGSLRLSCAASGFIYDKYVMGWSRQAPGKERQLVAAISSGGSTYYADSVKGRFTISRDNAKNTVYLQMNSLKPEDTAVYYCNAGGFWPWVYGYDSWGQGTQVTVSS | high polyreactivity |
| QVQLVESGGGLVQAGGSLRLSCAASGFIYERNAMGWYRQAPGKERELVAAISGGGSTNYADSVKGRFTISRDNAKNTVYLQMNSLNPEDTAVYYCAADSWWYPFDYWGQGTQVTVSS | high polyreactivity |
| QVQLVESGGGLVQAGGSLRLSCAASGFIYGPNAMGWYRQAPGKERELVAAISYSGGRTYYADSVKGRFTISRDNAKNTVYLQLISLKPEDSAVYYCAAERKIKYDYWGQGTQVTVSS | high polyreactivity |
| QVQLVESGGGLVQAGGSLRLSCAASGFIYNAMGWYRQAPGKERELVAAISYSGGSTYYADSVKGRFTISRDNAKNTVYLQMNILKPEDTAVYYCAAGYYPFNYWGQGTQVTVSS | high polyreactivity |
| QVQLVESGGGLVQAGGSLRLSCAASGFIYRKNAMGWYRQAPGKERELVATITKSGDTTYYADSVKGRFTISRDNAKNTVYLQMNSLKPEDTAVYYCAAPLYYIGSWDYYVRYIYDYWGQGTQVTVSS | low polyreactivity |
| QVQLVESGGGLVQAGGSLRLSCAASGFIYSSNAMGWYRQAPGKERELVAAISSSGGRTYYAVSVKGRFTISRDNAKNTVYLQMNRLKPEDTAVYYCNAYPRSRGSANDWGQGTQVPVSS | high polyreactivity |
| QVQLVESGGGLVQAGGSLRLSCAASGFIYTYAMGSYRQAPGKERELVAAIRWIGTRTYYADSVKGRFTISRDNAKNTVYLQMNSLKPEDTADYYCAARYYTYDGYSKYDYWGQGTQVNVSS | high polyreactivity |
| QVQLVESGGGLVQAGGSLRLSCAASGFLFGYSAMGWYRQAPGKERELVAAISYACRSTYYADSVKGRFTISRDNAKNTVYLQMNSLKPEDTAVYYCAKYGQSNYDWGQGTQVTVSS | high polyreactivity |
| QVQLVESGGGLVQAGGSLRLSCAASGFLFRYYARGWYRQAPGKERELVADISQNGDSTYYADSVKGRFTISRDTAKITVYLQMNCLNPDDTAVYYCNADNDPWPYFDGIFSVDMDYWGQGTQVTVSS | low polyreactivity |
| QVQLVESGGGLVQAGGSLRLSCAASGFNFIYYAMGWYRQAPGKERELVAAISRRGGSTYYADSVKGRFTISRDNAKNTVYLQMNSLKPEDTAVYYCAADYTSAILRSDYWGQGTQVTVSS | high polyreactivity |
| QVQLVESGGGLVQAGGSLRLSCAASGFNFNKNAMGWYIQAPGKERELVASITASGTTTYADSVKGRFTISRDNAKNTVYLQMNSLKPEDTAVYYCAVRTRIWGFYYWGQGTQVTVSS | high polyreactivity |
| QVQLVESGGGLVQAGGSLRLSCAASGFNFRANGMGWYRQAPGKERELVATITSGGTTNYADSVKGRFTISRDNAKNTVYLQMNSLKPEDTAVYYCDKRFGPAYFRLYDYWGQGTQVTVSS | low polyreactivity |
| QVQLVESGGGLVQAGGSLRLSCAASGFNFRSYAIGCYRQAPGKERELVAAITSTGGRTYYADSVKGRFTISRDNAKNTVYLQMNSLKPEETAVYYCAAGRKHYAPVHFGYWGQGTQVTVSS | high polyreactivity |
| QVQLVESGGGLVQAGGSLRLSCAASGFNIVRYAMGWYRHAPRKERELVATITSGTSTNYADSVKGRITISRDNAKNTVYFQMNSLKPDDTAVYYCAADHYYTGTTYNFWGQGTQVNVSS | low polyreactivity |
| QVQLVESGGGLVQAGGSLRLSCAASGFNLYPNAMGWYRQAPGKERELGAAITESDGITYYADSVKGRFTISRDNAKYTVYLQMNSLKPEDTAVYYCNTGFSYTYDYWGQGTQVTVSS | low polyreactivity |
| QVQLVESGGGLVQAGGSLRLSCAASGFSFPPYAMGWYRQAPGKERELVAAITTSGGSTYYADSVKGRFTISRDNAKNTVYLQMNSMKPEDTAVYYCAADWRYLGYTAMDYWGQGTQVTVSS | low polyreactivity |
| QVQLVESGGGLVQAGGSLRLSCAASGFSVYPYAMGWYRQAPGKERELVAAISSSGGSTYYADSVKGRFTISRDNAKNTVYLQMNSLKPEDTAVYYCNKRPQQYRPGYDYWGQGTQVTVSS | high polyreactivity |
| QVQLVESGGGLVQAGGSLRLSCAASGFTCSTYAMGWYSQAPGKERELVAVISWNGGSTYYADSVKGRFTISRDNANNTVYLQMNSLKPEDTAVYYCDARGSFKQGYWGQGTQVTVSS | high polyreactivity |
| QVQLVESGGGLVQAGGSLRLSCAASGFTCTRYAMGWYRQAPGKERELVATITGGGRTNYADSVKGRFTISRDNAKNTVYLQMNSLKPEDTADYYCNAKYRVYWGSGKFDYWGQGSQVTVSS | high polyreactivity |
| QVQLVESGGGLVQAGGSLRLSCAASGFTCTYYAMGWYRQAPGKERELVAAITRGGITNYADSVKGRFTISRDNAKNTVYLQMNSLKPEDTAVYYCAADYWNFNWRYKLYRPYDYWGQGTQVTVSS | high polyreactivity |
| QVQLVESGGGLVQAGGSLRLSCAASGFTFAFNAMGWYRQAPGKERELVAAISGTVSRTRYADSVKGRFTISRDNAKNTVYLQMNSLKPEDTAVYYCAARGYYRYSYPYQPYRMDYWGQGTQVTVSS | high polyreactivity |
| QVQLVESGGGLVQAGGSLRLSCAASGFTFAGNAMGWYRQAPGKERELVAGISRRGGNTYYADSVKGRFTISRDNAKNTVYLQMISLKPEDTAVYYCAARARRRYYYWGQGTQVTVSS | high polyreactivity |

| Sequence | polyreactivity (PSR sort gate) |
| --- | --- |
| QVQLVESGGGLVQAGGSLRLSCAASGFTFAGYAMGWYRQAPGKERELVAAISYSGGRTYYADSVKGRFTISRDNEKNTVYLQMNSLKPEDTAVYYCNADPAYYRGYYRQGYDYWGQGTQVTVSS | high polyreactivity |
| QVQLVESGGGLVQAGGSLRLSCAASGFTFAGYAMGWYRQAPGKERELVAGIRSSGARTYYADSVKGRFTISRDNAKNTVYLQMNSLKPEDTAVYYCAKTDGFYRGYGYWGQGTQVTVSS | low polyreactivity |
| QVQLVESGGGLVQAGGSLRLSCAASGFTFAKNAMGWYRPAPGKERELVATISRSGGSTYYADSVKGRFTISRDNAKNTVYLQMNSLKPEDTAVYDCAADRSYGVLGNEGGYWGQGTQVTVSS | high polyreactivity |
| QVQLVESGGGLVQAGGSLRLSCAASGFTFAKYVMGWYRQAPGKERELVAAISFSGGSTYYADSVKGRFTISRDNAKNTVYLQMNSLKPEDTAVYYCAALSDSRWHRFGYWGQGTQVTVSS | high polyreactivity |
| QVQLVESGGGLVQAGGSLRLSCAASGFTFAMNAMGWYRQAPGKERELVAAITFSGGSTYADSVKGRFTISRDNAKNTVYLQMNSLKPEDTAVYYCNAGGDGVATGYDYWGQGTQVTVSS | low polyreactivity |
| QVQLVESGGGLVQAGGSLRLSCAASGFTFANPMGWYRQAPGKERELVAAISSGGGSTYYADSVKGRFTISRDNAKNTVYLQMNSLKPEDTAVYYCAAGYGTLDWWEDYWGQGTQVTVSS | high polyreactivity |
| QVQLVESGGGLVQAGGSLRLSCAASGFTFANYVMGWSRQAPGKERELVAAITTPGGSTSYADSVKGRFTISRDNAKNTVYLQMNSLKPEDTAVYYCNKTTYYPSDYDYWGQGTQETVSS | low polyreactivity |
| QVQLVESGGGLVQAGGSLRLSCAASGFTFARYAMGWYIQAPGKERELVASISGSGESTYYADSVKGRFTISRDNAKNTVYLQMNSLKPEDTAVYYCAAEGSFLFFSWYWPEYDYWGQGTQVTVSS | high polyreactivity |
| QVQLVESGGGLVQAGGSLRLSCAASGFTFARYAMGWYRQAPGKERELVAAISWTGARTYYADSVKGRFTISRDNAKNTVYLQMNSLKPEDTAVYYCNAVSGSSNFDYWGQGTQVTVSS | high polyreactivity |
| QVQLVESGGGLVQAGGSLRLSCAASGFTFARYTRVWSRQAPGKERELVAAISKRGTSTYYADSVKGRFTISRDNAQNTVYLQMNSLKAEDTAVYYCAATPGTGYGDYDYWGQGTQVTVSS | high polyreactivity |
| QVQLVESGGGLVQAGGSLRLSCAASGFTFARYVMGWSRQAPGKERELVAGITYRVGSTYYADSVKGRFSISRDNAKNTVYLQMNSLKPEDTAVYYCAAYLSTGYYYWGQGTQVTVSS | high polyreactivity |
| QVQLVESGGGLVQAGGSLRLSCAASGFTFASNAMGWYRQAPWKERELDAGISRTGTTTYYADSVKGRFTISRDNAKNTVYLQMNSLKPEDTAVYYCAASKQAVKYRSQRYYYWGQGTQVTVSS | high polyreactivity |
| QVQLVESGGGLVQAGGSLRLSCAASGFTFASYAMGCYIQPPGKEMELVAAITWSGGSTYYADSVKGRFTISRDNAKNTVYLQMNSLKPEDTAVYYCNALVIARNIEMDYWGQGTQVTVSS | high polyreactivity |
| QVQLVESGGGLVQAGGSLRLSCAASGFTFASYAMGWYRQAPGKERELVAAITRRGGSTNYADSVKGRFTISRDNAKNTVFLQMNSLKPEDTAVYYCNALHGVWYPAYDYWGQGTQVTVSS | low polyreactivity |
| QVQLVESGGGLVQAGGSLRLSCAASGFTFAVYAMGWYRQAPGKERELVAAISRSGTRTYYADSVKGRFTISRDNAKNTVFLQMNSLKPEDTAVYYCAADKYRHGYDYWGQGTQVTVSS | low polyreactivity |
| QVQLVESGGGLVQAGGSLRLSCAASGFTFAWYAMGWYRQAPGKERELVAAISWSGGRTYYADSVKGRFTISRDNAKNTVYLQMNSLKPEDTAVYYCAALFLYGYVREYDYWGQGTQVTVSS | high polyreactivity |
| QVQLVESGGGLVQAGGSLRLSCAASGFTFAYIAMGWYRQAPGKERELVAAITVSGGRTYYADTVKGRFTISRDNAKNTVYLQMYSLKPEDTAVYYCAATVRVRTNSWMDYWGQGTQVTVSS | low polyreactivity |
| QVQLVESGGGLVQAGGSLRLSCAASGFTFAYYAMGWYRPAPGKERELVAAISSGGSTDYADSVKGRFTISRDNAKNTVYLQMNSLKPEDTAVYYCNAVVVRLWYDYDYWGQGTQVTVSS | low polyreactivity |
| QVQLVESGGGLVQAGGSLRLSCAASGFTFAYYAMGWYRQAPGKERELVAAISSGGGTYYADSVKGRFTISRDNAKNTVYLQMNSLKPEDTAVYYCNAANGRYIGSRYVVYTGFYYWGQGTQVTVSS | high polyreactivity |
| QVQLVESGGGLVQAGGSLRLSCAASGFTFAYYAMGWYRQAPGKERELVATITSGGRTYYADSVKGRFTISSDNAKNTVYLQMNSLKPEDTAVYYCAATGRSGVLSSYYYWGQGTQVTVSS | high polyreactivity |
| QVQLVESGGGLVQAGGSLRLSCAASGFTFAYYAMGWYRQAPRKESELVAGISWRGGRTYYADSVKGRFTISRDNAKNTVYLQMNSLKPEDTAVYYCAKQPGNFGRFDYWGQGTQVTVSS | high polyreactivity |
